Experimental data: patent publication US20240301046A1

Assays:
[1] = target: Aβ1-40 monomer (rPeptide, A-1157-2) (UniProt P05067); test: direct ELISA, coated Aβ1-40 monomer, 50 pmol per well
[2] = target: biotin-labelled Aβ1-40 monomer (AnaSpec, AS-61483-01) (UniProt P05067); test: capture ELISA, antibody coated at 100 ng per well, biotin-Aβ40 monomer
[3] = target: Aβ1-42 fibril (rPeptide, AF-1002) (UniProt P05067); test: direct ELISA, coated Aβ1-42 fibril, 50 pmol per well
Aβ1-42 protofibril = Aβ1-42 protofibril (UniProt P05067); test: direct ELISA, coated Aβ1-42 protofibril, 50 pmol per well

An EC50 [1] of 50000 nM, an EC50 [2] of 0.067 nM and an EC50 [3] of 0.08 nM were found for “non-conformation selective anti-Aβ antibody 6E10 (BioLegend, 803001)” in this work. The EC50 (Aβ1-42 protofibril) was 0.05 nM.
